“Also recorded” adds a separate entry of the source.
How the values were obtained:
[1] = target: T1, PfHsp70-1 (Plasmodium falciparum, UniProt Q8IB24); test: SPR heterologous association with PfHsp70-1; assay type: binding
[2] = target: T1, PfHsp70-1; settings: previous study; ref [3]; cited from earlier work
[3] = target: T2, PfHsp70-z (Plasmodium falciparum, UniProt Q8IC01); test: SPR self-association, immobilised ligand PfHsp70-z; assay type: binding
T2 sequence (Q8IC01 1-873): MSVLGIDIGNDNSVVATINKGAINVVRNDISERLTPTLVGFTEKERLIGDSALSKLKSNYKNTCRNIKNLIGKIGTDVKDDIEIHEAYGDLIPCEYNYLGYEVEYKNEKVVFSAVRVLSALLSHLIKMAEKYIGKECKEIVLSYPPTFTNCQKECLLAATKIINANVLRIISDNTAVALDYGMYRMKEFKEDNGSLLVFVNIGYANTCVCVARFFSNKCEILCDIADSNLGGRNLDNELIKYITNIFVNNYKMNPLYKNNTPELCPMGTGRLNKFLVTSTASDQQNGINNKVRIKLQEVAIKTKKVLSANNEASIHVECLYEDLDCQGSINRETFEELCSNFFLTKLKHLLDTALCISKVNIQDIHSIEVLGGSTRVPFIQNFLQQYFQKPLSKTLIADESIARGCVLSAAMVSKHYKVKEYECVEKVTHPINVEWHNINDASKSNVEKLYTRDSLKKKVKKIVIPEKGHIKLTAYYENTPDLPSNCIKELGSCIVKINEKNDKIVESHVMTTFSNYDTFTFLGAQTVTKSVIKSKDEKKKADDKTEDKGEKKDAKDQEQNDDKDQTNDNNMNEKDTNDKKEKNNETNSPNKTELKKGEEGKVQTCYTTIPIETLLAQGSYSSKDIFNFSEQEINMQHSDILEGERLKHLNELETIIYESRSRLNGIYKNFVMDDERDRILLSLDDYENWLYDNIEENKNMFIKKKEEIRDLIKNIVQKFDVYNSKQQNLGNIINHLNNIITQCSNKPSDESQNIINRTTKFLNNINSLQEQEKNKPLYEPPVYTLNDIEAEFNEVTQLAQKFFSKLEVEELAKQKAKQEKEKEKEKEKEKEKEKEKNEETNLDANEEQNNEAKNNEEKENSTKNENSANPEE

T1 sequence (Q8IB24 1-677): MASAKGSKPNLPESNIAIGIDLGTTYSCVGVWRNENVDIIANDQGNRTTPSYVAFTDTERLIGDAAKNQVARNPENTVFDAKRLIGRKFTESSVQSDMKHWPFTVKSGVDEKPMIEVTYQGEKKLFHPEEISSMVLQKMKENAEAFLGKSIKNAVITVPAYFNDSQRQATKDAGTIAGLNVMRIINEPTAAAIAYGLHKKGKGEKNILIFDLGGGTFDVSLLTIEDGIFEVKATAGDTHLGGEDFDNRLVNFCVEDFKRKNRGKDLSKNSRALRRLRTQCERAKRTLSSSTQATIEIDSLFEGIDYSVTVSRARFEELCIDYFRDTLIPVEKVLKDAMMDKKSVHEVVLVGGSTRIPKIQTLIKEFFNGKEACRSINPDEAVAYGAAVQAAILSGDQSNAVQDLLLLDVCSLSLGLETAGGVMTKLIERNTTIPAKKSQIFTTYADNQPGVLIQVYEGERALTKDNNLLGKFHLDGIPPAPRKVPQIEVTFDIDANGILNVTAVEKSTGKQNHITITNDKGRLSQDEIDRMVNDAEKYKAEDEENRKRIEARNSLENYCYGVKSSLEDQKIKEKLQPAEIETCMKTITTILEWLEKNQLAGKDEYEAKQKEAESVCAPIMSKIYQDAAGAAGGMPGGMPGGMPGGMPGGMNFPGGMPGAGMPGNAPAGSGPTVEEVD

B1: PfHsp70-z: essential cytosol localised Hsp110 chaperone of Plasmodium falciparum, recombinant (protein)
chain: T2 sequence (Q8IC01 1-873)
affinity in apo- vs ADP-state ([1]; apo- and ADP-states): occurred within the same order of affinity
effect of nucleotide on heterologous association ([1]; relative to apo-state): ATP enhanced the direct association of the two chaperones
effect of ATP on association [2]: ATP substantially enhances their association
nucleotide regulation of self-association ([3]; NN vs ADP/ATP): its self-association was nucleotide independent; also recorded: its oligomerisation was not regulated by nucleotide
KD self-association ([3]; apo state): 1.39 nM

Source: article PMC11066147 (Heliyon, 2024)
